A short description of the series: Stability of the radiopharmaceutical composition: radiochemical purity by radio-TLC over time from EoP. It counts as physicochemical. The following applies: Tris pH 8.0, sodium ascorbate formulation. The procedure: Upon reaction completion, the mixture was directly cooled down with formulation solution (123.7 mg/mL sodium ascorbate buffer) to yield a 20 mL [^225Ac]Ac-DOTA-satoreotide stock solution. Reaction completion is referred to as the “end-of-production” (EoP) time, or t=0 h as used in the following results.
This was determined by radio TLC as set out below.
Radio-TLC was performed at T=0 h and at various time points subsequent to the radiolabeling procedure. To run the procedure, 5 μL of reaction solution was spotted on a TLC plate (RP-C18 silica glass plates) at about 1.5 cm from bottom edge. The TLC plate was developed using a mobile phase mixture of ammonium acetate 25% and methanol (40:60 Vol.-%) with an elution length of about 5-6 cm. The TLC plate was dried and measured on a phosphor imager (Perkin Elmer Cyclone Plus Storage Phosphor system) once secular equilibrium of ^225Ac and ^221Fr/^213Bi was reached (>6 hours after development). Free Ac(III) stays at the origin while ^225Ac-DOTA-Satoreotide travels with the eluent front.
In FIG. 1, “T=Xh, read Yh” means that a sample was taken and developed at T=Xh but analyzed Yh after development of the TLC plate, to account for equilibrium of the daughters.

Turning to [^225Ac]Ac-DOTA-satoreotide, the radiochemical purity by setting is: (after 168 hours (from EoP) at ambient temperatures) 95.8%; (at 96 h from EoP) 98.9%.
